Laboratory results taken from the supplement of paper PMC10724198.
± gives the standard deviation of the averaged measurements.

System: Saccharomyces cerevisiae
Assay: protein stability index of tFT-peptide fusion (C-terminal peptide) (PSI (0-1 scale)); higher = more stable (slower turnover)
Details: genetic background: wild type; temperature: 30 C
Protocol: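 Multiplexed protein stability (MPS) profiling in S. cerevisiae. Random 12-aa peptides (tFT-X12 library) are fused to the C-terminus of a sfGFP-mCherry tandem fluorescent timer, after mCherry and a GGGS linker. Cells are FACS-sorted into 8 mCherry/sfGFP bins and deep-sequenced. The protein stability index (PSI) is the read-weighted bin average, scaled from 0 (unstable) to 1 (stable). Only peptides with >10 reads are reported; cells were grown at 30 °C in SC-His with glucose.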
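Also: PSI is a weighted mean of sequencing reads over stability bins, variants kept only with over 10 reads, mCherry proximal and sfGFP distal, peptide attached via GGGS linker.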

| Sequence | protein stability index |
| --- | --- |
| CDRAYSPLSRHN | 0.6848 ± 0.0063 |
| PPFPPHPPPSSA | 0.6873 ± 0.0052 |
| PSPRPPPPPPPP | 0.66 ± 0.025 |
| SLYRSAARHLGI | 0.754 ± 0.037 |
| VRDLGSPFIVYR | 0.64 ± 0.059 |
| AAPPHLTSHPPL | 0.811 ± 0.19 |
| VDCGPLSIEGGR | 0.649 ± 0.018 |
| VLGGRWDGVGGV | 0.661 ± 0.064 |
| PFPPSLPSLPLL | 0.698 ± 0.017 |
| PSPPPSLLPTPP | 0.679 ± 0.063 |
| PRASSPPPPTAS | 0.666 ± 0.024 |
| MRIKKQNIRNDT | 0.615 ± 0.063 |
| QRTAACGSQRNR | 0.682 ± 0.025 |
| QVKESDGEATKS | 0.592 ± 0.024 |
| ANVRTCCTSVPV | 0.652 ± 0.037 |
| YFWTHLISIPDV | 0.676 ± 0.062 |
| KRKERKGEKKRR | 0.685 ± 0.033 |
| VLLLSRPLFPFS | 0.669 ± 0.031 |
| GAGVEIGKSRYR | 0.716 ± 0.074 |
| CPCPSHLLLRSP | 0.659 ± 0.0084 |
| RAARQRSVYQHG | 0.6481 ± 0.0037 |
| QSILVCELGMEG | 0.67 ± 0.051 |
| DNKDRFRMFRVG | 0.695 ± 0.095 |
| LPGSVLLFPSFS | 0.747 ± 0.035 |
| GYVVVGGGGWLG | 0.6754 ± 0.0025 |

| Sequence | protein stability index |
| --- | --- |
| QSRAMFELMGIS | 0.652 ± 0.004 |
| EGAGSAPCMVQG | 0.68 ± 0.026 |
| PPPPPSSFPFPP | 0.656 ± 0.049 |
| VEDGQGEYRRWV | 0.606 ± 0.049 |
| ILRLSLPYEGYI | 0.645 ± 0.032 |
| PPPLLCPSSAPP | 0.783 ± 0.087 |
| PPPPPPLPLPLS | 0.711 ± 0.084 |
| SPLRSCPADPSQ | 0.763 ± 0.082 |
| SWKEAIVAISGS | 0.612 ± 0.058 |
| PSRPAHSPPVPP | 0.646 ± 0.02 |
| SIYLLQRRQFDP | 0.677 ± 0.048 |
| RKGERRKKKKRR | 0.677 ± 0.051 |
| LSLRGRLNYRMM | 0.647 ± 0.011 |
| VVDSGLFLAASR | 0.643 ± 0.08 |
| DGVAILPLVRIS | 0.63 ± 0.031 |
| RHSREPRASMTR | 0.641 ± 0.072 |
| LLHWGRWSRGRR | 0.694 ± 0.071 |
| KKEKRQQEKIIK | 0.671 ± 0.04 |
| YYPRGIYHNSMT | 0.713 ± 0.033 |
| SSPSPCSRPLLL | 0.7112 ± 0.0011 |
| TPPPPAPPHPPP | 0.62 ± 0.036 |
| NQKEIKYTLKYI | 0.684 ± 0.018 |
| WGWGGVRGGMGG | 0.796 ± 0.08 |
| CYLKGSGSWISG | 0.718 ± 0.031 |
| RPAVPSPRPPPP | 0.674 ± 0.029 |

| Sequence | protein stability index |
| --- | --- |
| LSSGLLIFPIVF | 0.631 ± 0.031 |
| RINKKRETNQGK | 0.685 ± 0.05 |
| LIILKNKRKNKI | 0.704 ± 0.04 |
| FMLCCFPCWCVL | 0.6127 ± 0.0041 |
| KKNKKKRRAQKE | 0.669 ± 0.044 |
| PPSNAFEETLRT | 0.7 ± 0.015 |
| GDTRILKSRPEI | 0.699 ± 0.0098 |
| GLVVATECGGRP | 0.648 ± 0.024 |
| TPASCHQFGYQH | 0.695 ± 0.026 |
| RCTRAAGLAAPA | 0.691 ± 0.0088 |
| TLTDCRKKCGRV | 0.715 ± 0.097 |
| TGKTHSGNKYER | 0.684 ± 0.059 |
| LLSPDAALGRLF | 0.692 ± 0.025 |
| LLRPLRRLDVSW | 0.632 ± 0.0065 |
| ETWRRIDRLFGS | 0.619 ± 0.058 |
| SALRGTDMREEV | 0.632 ± 0.023 |
| SVWDGSRVKCST | 0.704 ± 0.04 |
| VSWLSTKCWTIL | 0.563 ± 0.038 |
| VSREWNVSIDVF | 0.495 ± 0.027 |
| GVRRAAFAKYGG | 0.655 ± 0.0071 |
| PSSWGRFLRRRP | 0.7 ± 0.024 |
| SWSVSVNMVGQS | 0.6829 ± 0.0042 |
| CVGFVVVGGVLG | 0.667 ± 0.05 |
| RGGGGVLEVLLG | 0.5347 ± 0.0046 |
| PPLSCFPLSTRL | 0.683 ± 0.002 |

| Sequence | protein stability index |
| --- | --- |
| VGVWAGVVLLGG | 0.825 ± 0.18 |
| SKGSVFGNMGYR | 0.6741 ± 0.0063 |
| LDCVPRTHCILS | 0.664 ± 0.074 |
| FIKSRRLCCVNL | 0.663 ± 0.032 |
| PFPPYSLPLPSP | 0.759 ± 0.016 |
| PCSPLSLPPPFP | 0.722 ± 0.0073 |
| IAMVTLPRLNKS | 0.7179 ± 0.0071 |
| PFRSPYQRPLHY | 0.689 ± 0.039 |
| HPPYRHHPAPLR | 0.673 ± 0.058 |
| WVEACVCRGFVG | 0.698 ± 0.059 |
| PNVPVPTPPPGI | 0.729 ± 0.061 |
| TGVSTRVTHTAP | 0.707 ± 0.014 |
| GVWREVGNIEEV | 0.701 ± 0.0099 |
| RPLRRQREVCGA | 0.597 ± 0.019 |
| VGSVWGDCLGYL | 0.701 ± 0.049 |
| APPPRLAPTLSS | 0.775 ± 0.014 |
| EFLGRVPNTQDG | 0.668 ± 0.078 |
| ARPFLWDFCLGR | 0.681 ± 0.028 |
| LIWRQEDGGPMT | 0.747 ± 0.01 |
| GWCTLASGLFTT | 0.673 ± 0.1 |
| PPSSRPPVRSPP | 0.6903 ± 0.0014 |
| FSRSGIRLLGVA | 0.59 ± 0.021 |
| KKKKKKKKQEQN | 0.63076 ± 3e-05 |
